Results as given in publication doi:10.1101/2024.05.15.594416 (bioRxiv, 2024).
Substitutions are numbered along the chain they refer to. Names may count otherwise.

Key:
[1] = target: T1, soluble CD14 (sCD14), wildtype (human, UniProt P08571 20-367); experiment: BLI
T1 sequence (looked up): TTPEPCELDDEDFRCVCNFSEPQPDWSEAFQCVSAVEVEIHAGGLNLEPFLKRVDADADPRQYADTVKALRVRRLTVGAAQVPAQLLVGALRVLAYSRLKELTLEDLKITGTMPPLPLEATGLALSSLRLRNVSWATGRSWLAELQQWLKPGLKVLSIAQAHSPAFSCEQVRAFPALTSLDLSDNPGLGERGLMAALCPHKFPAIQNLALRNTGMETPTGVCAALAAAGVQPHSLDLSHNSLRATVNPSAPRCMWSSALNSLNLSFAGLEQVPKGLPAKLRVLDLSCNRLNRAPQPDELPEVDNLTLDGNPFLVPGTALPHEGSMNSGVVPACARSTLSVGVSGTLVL

[2] = target: T2, soluble CD14 Surface II mutant (R90E/R92E/R117E) (human, UniProt P08571 20-367, R90E | R92E | R117E); experiment: BLI
T2 sequence (looked up): T1 sequence (looked up) with R71E, R73E, R98E

B1: S100A9/C3S/P114C, biotinylated (natural protein, human)
chain: TSKMSQLERNIETIINTFHQYSVKLGHPDTLNQGEFKELVRKDLQNFLKKENKNEKVIEHIMEDLDTNADKQLSFEEFIMLMARLTWASHEKMHEGDEGPGHHHKPGLGEGTC
modifications: biotin (EZ-link BMCC kit; biotinylation confirmed by MALDI-TOF)
B1 gave a Kd [1] of 3.9 µM and a Kd [2] of 10 µM.
